According to publication PMC10073093, “TGFBI remodels adipose metabolism by regulating the Notch-1 signaling pathway” (Experimental & Molecular Medicine, 2023):

B1: Recombinant Notch-1 protein (receptor)
chain: ARGPRCSQPGETCLNGGKCEAANGTEACVCGGAFVGPRCQDPNPCLSTPCKNAGTCHVVDRRGVADYACSCALGFSGPLCLTPLDNACLTNPCRNGGTCDLLTLTEYKCRCPPGWSGKSCQQADPCASNPCANGGQCLPFEASYICHCPPSFHGPTCRQDVNECGQKPGLCRHGGTCHNEVGSYRCVCRATHTGPNCERPYVPCSPSPCQNGGTCRPTGDVTHECACLPGFTGQNCEENIDDCPGNNCKNGGACVDGVNTYNCRCPPEWTGQYCTEDVDECQLMPNACQNGGTCHNTHGGYNCVCVNGWTGEDCSENIDDCASAACFHGATCHDRVASFYCECPHGRTGLLCHLNDACISNPCNEGSNCDTNPVNGKAICTCPSGYTGPACSQDVDECSLGANPCEHAGKCINTLGSFECQCLQGYTGPRCEIDVNECVSNPCQNDATCLDQIGEFQCICMPGYEGVHCEVNTDECASSPCLHNGRCLDKINEFQCECPTGFTGHLCQ
modifications: Species, supplier and limits not stated. Human assumed (mouse Q01705 is possible). Limits follow the usual commercial recombinant Notch-1 ectodomain fragment (N-terminal EGF repeats including …)
B2: Recombinant TGFBI (transforming growth factor-beta-induced protein) (natural protein)
chain: GPAKSPYQLVLQHSRLRGRQHGPNVCAVQKVIGTNRKYFTNCKQWYQRKICGKSTVISYECCPGYEKVPGEKGCPAALPLSNLYETLGVVGSTTTQLYTDRTEKLRPEMEGPGSFTIFAPSNEAWASLPAEVLDSLVSNVNIELLNALRYHMVGRRVLTDELKHGMTLTSMYQNSNIQIHHYPNGIVTVNCARLLKADHHATNGVVHLIDKVISTITNNIQQIIEIEDTFETLRAAVAASGLNTMLEGNGQYTLLAPTNEAFEKIPSETLNRILGDPEALRDLLNNHILKSAMCAEAIVAGLSVETLEGTTLEVGCSGDMLTINGKAIISNKDILATNGVIHYIDELLIPDSAKTLFELAAESDVSTAIDLFRQAGLGNHLSGSERLTLLAPLNSVFKDGTPPIDAHTRNLLRNHIIKDQLASKYLYHGQTLETLGGKKLRVFVYRNSLCIENSCIAAHDKRGRYGTLFTMDRVLTPPMGTVMDVLKGDNRFSMLVAAIQSAGLTETLNREGVYTVFAPTNEAFRALPPRERSRLLGDAKELANILKYHIGDEILVSGGIGALVRLKSLQGDKLEVSLKNNVVSVNKEPVAEPDIMATNGVVHVITNVLQPPANRPQERGDELADSALEIFKQASAFSRASQRSVRLAPVYQKLLERMKH
modifications: Species, supplier and limits not stated. Human assumed (mouse Q01705 is possible). Limits follow the usual commercial recombinant Notch-1 ectodomain fragment (N-terminal EGF repeats including ligand-binding EGF 11-12), recalled rather than printed; any Fc carrier omitted.

Assays:
[1] = molecular target: T1, Recombinant TGFBI (transforming growth factor-beta-induced protein) (UniProt Q15582 24-683); assay: ELISA; recombinant Notch-1 (2 g/ml as printed, in PBS) coated on 96-well polystyrene plates at RT overnight; blocked with 1% BSA in PBS; Jagged-1 or TGFBI added at 0 to 2000 ng/ml; biotinylated antibodies, streptavidin-HRP, OD 450 nm; Kd (nM) = ED50 (ng/mL)/molecular weight of binding protein; details: both partners purified
T1 construct: Transforming growth factor-beta-induced protein (TGFBI, βig-H3); cDNA inserted into the EcoRV and EcoRI sites of pET-29b; also called βig-H3; keratoepithelin; source: E. coli, IPTG-induced, purified (Ni-NTA column, dialyzed)
T1 sequence (looked up): B2 chain

[2] = molecular target: T2, Recombinant Notch-1 protein (UniProt P46531 19-2555); assay: ELISA
T2 chain: B1 chain

Binder | Kd [1] [nM] | EC50 [2] [µg/mL]
B1 | 3.18 | 
B2 |  | 0.452
